The values that follow come from patent US20090291885A1.

What all share (assay): cell-based or functional assay
Assay [1] addresses human Kv1.3 voltage-gated potassium channel (human) (UniProt P22001).
Assay [2] has as its target human Kv1.3 channel (human) (UniProt P22001).
Assay [3] addresses human Kv1.1 channel (human) (UniProt Q09470).
In assay [4] the target is human Kv1.3 channel (human) (UniProt P22001). This is another data set of the same source.

Like-named read-outs stand apart in the source and are kept apart here. Ends that are not written are not given here.

Sequence of human Kv1.3 channel (human) (P22001 whole entry): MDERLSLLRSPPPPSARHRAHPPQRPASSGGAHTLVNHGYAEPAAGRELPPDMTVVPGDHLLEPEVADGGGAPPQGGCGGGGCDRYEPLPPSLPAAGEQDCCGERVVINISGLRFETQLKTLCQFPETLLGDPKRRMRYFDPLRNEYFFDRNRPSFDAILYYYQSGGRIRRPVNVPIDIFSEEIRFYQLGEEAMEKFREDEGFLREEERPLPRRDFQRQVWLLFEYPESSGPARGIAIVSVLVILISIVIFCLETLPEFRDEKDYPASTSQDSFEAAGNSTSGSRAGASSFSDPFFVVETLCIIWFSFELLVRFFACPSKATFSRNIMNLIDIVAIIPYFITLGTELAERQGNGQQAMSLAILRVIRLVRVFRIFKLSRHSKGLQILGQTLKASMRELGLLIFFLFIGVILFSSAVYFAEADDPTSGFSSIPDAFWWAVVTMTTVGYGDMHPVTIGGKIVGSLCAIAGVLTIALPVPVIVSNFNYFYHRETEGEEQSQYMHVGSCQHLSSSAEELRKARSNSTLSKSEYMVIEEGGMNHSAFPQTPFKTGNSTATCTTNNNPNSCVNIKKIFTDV
Sequence of human Kv1.1 channel (human) (Q09470 whole entry): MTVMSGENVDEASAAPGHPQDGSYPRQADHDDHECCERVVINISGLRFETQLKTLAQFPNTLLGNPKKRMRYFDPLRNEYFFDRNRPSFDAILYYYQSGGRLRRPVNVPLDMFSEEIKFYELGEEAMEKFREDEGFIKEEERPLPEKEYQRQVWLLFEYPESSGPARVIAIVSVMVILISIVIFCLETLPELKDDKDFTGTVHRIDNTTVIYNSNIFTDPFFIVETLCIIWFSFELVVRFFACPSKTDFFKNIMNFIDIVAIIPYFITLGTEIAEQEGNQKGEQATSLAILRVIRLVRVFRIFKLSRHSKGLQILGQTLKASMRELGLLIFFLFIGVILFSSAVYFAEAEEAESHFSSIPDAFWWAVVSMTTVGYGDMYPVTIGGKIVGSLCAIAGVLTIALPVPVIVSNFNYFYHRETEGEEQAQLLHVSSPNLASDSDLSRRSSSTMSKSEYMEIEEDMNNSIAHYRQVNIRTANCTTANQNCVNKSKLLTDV
Sequence of human Kv1.3 voltage-gated potassium channel (human) (P22001 whole entry): as the sequence (P22001 whole entry) above

Regarding 20k PEG-ShK (peptide), in assay [1], the WB/IFNg (IC50, nM) stood at 0.065 nM and the WB/IL-2 (IC50, nM) was determined as 0.046 nM. E. coli-derived Fc-L-OSK1 (Fc fusion) came in with a Kv1.3 IC50 by WCVC in assay [2] of 3.2 nM. In assay [2], “E. coli-derived Fc-L-ShK[1-35] (Fc fusion)” had a Kv1.3 IC50 by WCVC of 1.4 nM. As to “E. coli-derived Fc-L-ShK[2-35] (Fc fusion)”, in assay [2], the Kv1.3 IC50 by IWQ was determined as 2.8 nM and the Kv1.3 IC50 by WCVC came out at 1.3 nM.

As to “E. coli-derived ShK[2-35]-L-Fc (Fc fusion)”, in assay [2], the Kv1.3 IC50 by IWQ worked out at 4.9 nM. In turn, “E. coli-derived Shk[1-35]-L-Fc (Fc fusion)” gave a Kv1.3 IC50 by IWQ in assay [2] of 2.4 nM.

In assay [2], Fc-L10-OSK1 (Fc fusion) yielded a fold loss of potency in Kv1.3 current block against synthetic OSK1 of 5 fold. For the molecule Fc-L25-ShK[2-35] (Fc fusion), the IC50, whole cell patch clamp electrophysiology on HEK293/Kv1.3 cells in assay [2] turned out to be 150 pM. In assay [2], GGGGS-Osk1 (peptide) came in with a WB/IFNg IC50 of 2.2 nM and a WB/IL-2 IC50 of 1.36 nM. Take OSK1 (wild-type) (peptide): the Kv1.1 IC50, whole cell patch clamp in assay [3] was determined as 0.202 nM. In addition, in assay [2], the Kv1.3 IC50, whole cell patch clamp stood at 0.039 nM and the Kv1.3 Selectivity (= Kv1.1/Kv.3 IC50) was 5 fold. PEG-OSK1 (peptide): the peak IC50, whole cell patch clamp on HEK293 cells stably expressing human Kv1.3 in assay [2] was determined as 1.28 nM.

In assay [3], Synthetic OSK1 (peptide) had a hKv1.1: IC50 [pM] of 160 pM. Besides, in assay [2], the hKv1.1/hKv1.3 (selectivity ratio of the IC50s) turned out to be 4 fold and the hKv1.3: IC50 [pM] turned out to be 39 pM. RSCIDTIPKSRCTAFQCKHSMKYRLSFCRKTCGTC (not fully specified; ends and bridges not checked) [20K PEG-ShK[1-35]] had a peak IC50, whole cell patch clamp on HEK293 cells stably expressing human Kv1.3 in assay [4] of 0.169 nM.
